Results from paper PMC11417369, “DNA sequence and chromatin differentiate sequence-specific transcription factor binding in the human malaria parasite Plasmodium falciparum”.

T1: PF3D7_0420300 D1 (Plasmodium falciparum, UniProt Q8I1N6 1956-2015)
T1 sequence: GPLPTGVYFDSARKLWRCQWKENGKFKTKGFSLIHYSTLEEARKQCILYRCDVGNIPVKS

T2: AP2-HC D1 (Plasmodium falciparum, UniProt Q8IKR9 1316-1374)
T2 sequence: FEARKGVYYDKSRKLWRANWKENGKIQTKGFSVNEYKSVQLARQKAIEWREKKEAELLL

T3: AP2-LT D1 (Plasmodium falciparum, UniProt Q8IAM1 2520-2577)
T3 sequence: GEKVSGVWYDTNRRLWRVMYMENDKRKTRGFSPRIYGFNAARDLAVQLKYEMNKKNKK

B1: CACACA_site4553 (dsDNA)
DNA 1: AAAAAAAGATTATACACACACATATATAAACATACA
DNA 2: TGTATGTTTATATATGTGTGTGTATAATCTTTTTTT
B2: CACACA_site7754 (dsDNA)
DNA 1: TAAAATAAAACAAACACACACACACGGACACAAAAA
DNA 2: TTTTTGTGTCCGTGTGTGTGTGTTTGTTTTATTTTA
B3: CACACA_negctrl_site1139 (dsDNA)
DNA 1: ATTTTTTTTTTTTTTATTCCCCTTTCGAAAAAAACC
DNA 2: GGTTTTTTTCGAAAGGGGAATAAAAAAAAAAAAAAT
B4: CACACA_site2305 (dsDNA)
DNA 1: TTCCCCCCCAGACACACACACACATACATACCACAT
DNA 2: ATGTGGTATGTATGTGTGTGTGTGTCTGGGGGGGAA
B5: CACACA_site7658 (dsDNA)
DNA 1: AATAAAAAGGAACACACACACACACGGATATAAATA
DNA 2: TATTTATATCCGTGTGTGTGTGTGTTCCTTTTTATT
B6: CACACA_negctrl_site1564 (dsDNA)
DNA 1: AAAATGTCCCGTAGAAAATAAATTTATTACGCAATA
DNA 2: TATTGCGTAATAAATTTATTTTCTACGGGACATTTT
B7: CACACA_site6215 (dsDNA)
DNA 1: AAAAAAAAAAGACACACACACACATAAATATAAATA
DNA 2: TATTTATATTTATGTGTGTGTGTGTCTTTTTTTTTT
B8: CACACA_negctrl_site49 (dsDNA)
DNA 1: AATATATAAATATATATAAATAAATATATATATAAA
DNA 2: TTTATATATATATTTATTTATATATATTTATATATT
B9: CACACA_site365 (dsDNA)
DNA 1: CACCCCCACAGACACACACACACACCCACATATATA
DNA 2: TATATATGTGGGTGTGTGTGTGTGTCTGTGGGGGTG
B10: CACACA_negctrl_site803 (dsDNA)
DNA 1: TTTTGTAAAAAAAAAAAAAAAGGAAAATTAAAATAA
DNA 2: TTATTTTAATTTTCCTTTTTTTTTTTTTTTACAAAA
B11: CACACA_negctrl_site640 (dsDNA)
DNA 1: GTATATATATTTCTTTAATAATTAAATTATAAATAT
DNA 2: ATATTTATAATTTAATTATTAAAGAAATATATATAC
B12: CACACA_site8410 (dsDNA)
DNA 1: AAAAAATCACAACACACACACACACTAATAAAAAAA
DNA 2: TTTTTTTATTAGTGTGTGTGTGTGTTGTGATTTTTT
B13: CACACA_negctrl_site709 (dsDNA)
DNA 1: TGAAAAAAAAAAAAAAAAAAAAGAAAAAAAAAAAAA
DNA 2: TTTTTTTTTTTTTCTTTTTTTTTTTTTTTTTTTTCA
B14: CACACA_site4184 (dsDNA)
DNA 1: TGAATAAATAAACACACACACATATATATATCTGTA
DNA 2: TACAGATATATATATGTGTGTGTGTTTATTTATTCA
B15: CACACA_site2430 (dsDNA)
DNA 1: CAAACAAACAGACACACACACACACCCAAAAATGAT
DNA 2: ATCATTTTTGGGTGTGTGTGTGTGTCTGTTTGTTTG
B16: CACACA_site362 (dsDNA)
DNA 1: CACCCACACCAACACACACACATATATATATATATA
DNA 2: TATATATATATATATGTGTGTGTGTTGGTGTGGGTG
B17: CACACA_negctrl_site358 (dsDNA)
DNA 1: TGTTTCCAAAAAAAAAAAAAAAAAAAAAAAAAAAAA
DNA 2: TTTTTTTTTTTTTTTTTTTTTTTTTTTTTGGAAACA
B18: CACACA_site4721 (dsDNA)
DNA 1: AACATTATAGGACACACACACACATATATATATATA
DNA 2: TATATATATATATGTGTGTGTGTGTCCTATAATGTT

What follows are binders tested against T1, PF3D7_0420300 D1 (assay: gcPBM; about 25 ug protein; PBS, 1% milk, 0.2 mg/ml BSA, salmon testes DNA, 0.03% Triton X-100). Conditions: tags: N-terminal GST (pGEX-4T-1), kept; label: surface-attached array probe.

Binder | binding signal
B1 | 10.1 ln median PBM intensity, better of two orientations
B2 | 10.4 ln median PBM intensity, better of two orientations
B3 | 9.05 ln median PBM intensity, better of two orientations
B4 | 10.4 ln median PBM intensity, better of two orientations
B5 | 10.5 ln median PBM intensity, better of two orientations
B6 | 9.06 ln median PBM intensity, better of two orientations
B7 | 10.3 ln median PBM intensity, better of two orientations
B8 | 8.92 ln median PBM intensity, better of two orientations
B9 | 10.4 ln median PBM intensity, better of two orientations

The binders below were run against T2, AP2-HC D1 in the same assay as above. Conditions: tags: N-terminal GST (pGEX-4T-1), kept; label: surface-attached array probe.

Binder | binding signal
B10 | 9.16 ln median PBM intensity, better of two orientations
B11 | 9.37 ln median PBM intensity, better of two orientations
B12 | 12.3 ln median PBM intensity, better of two orientations
B13 | 8.7 ln median PBM intensity, better of two orientations
B14 | 10.8 ln median PBM intensity, better of two orientations
B15 | 12.2 ln median PBM intensity, better of two orientations
B16 | 11.7 ln median PBM intensity, better of two orientations
B17 | 8.96 ln median PBM intensity, better of two orientations
B18 | 11.9 ln median PBM intensity, better of two orientations
B1 | 10.7 ln median PBM intensity, better of two orientations
B2 | 11.9 ln median PBM intensity, better of two orientations
B3 | 9.47 ln median PBM intensity, better of two orientations
B4 | 12.1 ln median PBM intensity, better of two orientations
B5 | 11.7 ln median PBM intensity, better of two orientations
B6 | 9.41 ln median PBM intensity, better of two orientations
B7 | 12.2 ln median PBM intensity, better of two orientations
B8 | 9.5 ln median PBM intensity, better of two orientations
B9 | 10.8 ln median PBM intensity, better of two orientations

Each binder was assayed against T3, AP2-LT D1 in the same assay as above. Conditions: tags: N-terminal GST (pGEX-4T-1), kept; label: surface-attached array probe.

Binder | binding signal
B10 | 8.33 ln median PBM intensity, better of two orientations
B11 | 8.59 ln median PBM intensity, better of two orientations
B12 | 10.7 ln median PBM intensity, better of two orientations
B13 | 8.21 ln median PBM intensity, better of two orientations
B14 | 10.1 ln median PBM intensity, better of two orientations
B15 | 10.6 ln median PBM intensity, better of two orientations
B16 | 10.8 ln median PBM intensity, better of two orientations
B17 | 8.01 ln median PBM intensity, better of two orientations
B18 | 10.7 ln median PBM intensity, better of two orientations
